Assay: yeast display, Sf9 membrane polyspecificity reagent, FACS + sequencing; frameworks hold sequencing errors
Method in brief: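 Genes from sorted yeast were amplified by colony PCR, read by MiSeq 2 × 250 sequencing and filtered on CDR length. These cells carried a synthetic nanobody library in Saccharomyces cerevisiae BJ5465 and were sorted by FACS into low and high (top ~1%) gates on anti-HA and streptavidin fluorescence. Polyreactivity is labelled according to the gate of origin.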

Sequence | polyreactivity (PSR sort gate)
QVQLVESGGGLVQAGGSHRLSCAASGSIYLYYAMGRYRQAPGKERELVAGINRVGSTNYADSVKGRFTISRDNAKNTVYLQMNSLKPEDTAGYYCAKVVNGGYFYYQYPAQYYYWGQGTQVTVSS | low polyreactivity
QVQLVESGGGLVQAGGSHRLSCAASGSNIRFYAMGWYRQAPGKEREFVAAITSSGGNTYYADSVKGRFTISRDNAKNSVYLHMNSLKPEDTAVYYCAARYYGYGFDYWGQGTQVTVSS | high polyreactivity
QVQLVESGGGLVQAGGSHRLSCAASGSTFGQNAMGCYRQAPGKERELVAAITRRGVSTYYADSVKGRFTISRDNAKNTVYLQMNSLKPEDTAVYYCAKRYHPNSPYDYWGQGTQVTVSS | low polyreactivity
QVQLVESGGGLVQAGGSHRLSCAASGSTFNLNAMGWYRQAPGKERELVAAIDSGGRTNYADSVKGRFTISRDNAKNTVYLQMNSLKPEDTAVYYCADDVYAYPGSWYDYWGQGTQVTVSS | low polyreactivity
QVQLVESGGGLVQAGGSHRLSCAASGSTFPAYAMGLYRQAPGKERELVAAINTTGGNTYYADSVKGRFTISRDNAKNTVYFQMNSLKPEDTAVYYCAADYKARYSEKFDYWGQGTQVTVSS | low polyreactivity
QVQLVESGGGLVQAGGSHRLSCAASGSTFVYYAMGWYRQAPGKERELVADISSSTGSTYYADSVKGRFTISRDNAKNTVYLQMNSLKPEDTAVYYCAAGRLKFWYTYIIYDFYYWGQGTQVTVSS | low polyreactivity
QVQLVESGGGLVQAGGSHRLSCAASGSTFWRYAMGWYRQAPGKERELVAAITRRGSSTYYADSVKGRFTISRDNAKNTVYLQMNSLKPEDTAVYYCAREPYPYIRTYILGNYWGQGTQVTVSS | high polyreactivity
QVQLVESGGGLVQAGGSHRLSCAASGSTFYGYAMGWYRQAPGKESELVAAIRFSGDRTYYADSVKGRFTISRDNAKNTVYLQMNSLKPEDTAVYYCAAYGYPYQRKYGSWGQGTQVTVSS | high polyreactivity
QVQLVESGGGLVQAGGSHRLSCAPSGFTLADYTMAWYRPAPGKERELVAAITSGASTYYADSVKGRFTISRDNAKNTVYLQMNSLKPEDTAGYYCAARNDYYNTFSGYDYWGQGTQVTVSS | low polyreactivity
QVQLVESGGGLVQAGGSHRLSSAASGNTFGINAMGWYRQAPGKERELVASISFTGSSTYYADSVKGRFTISRDNAKNTVYLQMNSLKPEDTAVYYCNRDRITLYEYDYWGQGTQVTVSS | low polyreactivity
QVQLVESGGGLVQAGGSIPLTCAASGRTLWGYAMGWYSQAPGKEREMVAAITSGGSTYYADSVKGRFTISRDNAKYYVYLQMNSLKPEDTAVDYCNAVTSIQTSYPSNWGMMDYWGQGSQVTVSS | low polyreactivity
QVQLVESGGGLVQAGGSIRLICAASGSIFRLYAKGWYRQAPGKEREFVAAISSRGGSTYYADSVKGRFTISRDKAKNTVYLEMNSLKPEDSAVDYCAVYGYHEGGYWGQGTQVTVSS | high polyreactivity
QVQLVESGGGLVQAGGSIRLSCAASGFIFGLYDMGWYRQAPGKERELDAAISWSGGSTYYADSVKGRFTISRDNAKNTVYLQMNSLKPEDTAVYYCNKDLYADGEYNYDYWGQGTQVTVSS | low polyreactivity
QVQLVESGGGLVQAGGSIRLSCAASGFIFYYNPMGWSRQEPGIERELVADITSGRSTYYADSVKGRFTISRDNAKISVYLQLNSLKPEDTAVIYCAVDYDQFGSDEELPPGSDYWGQGTQVTVSS | low polyreactivity
QVQLVESGGGLVQAGGSIRLSCAASGFTFRSYTMGWYRQAPGKESELVAAITSRGTSTYYADSVKGRFTIPRDNAKNAVYLQMNSLKPEDTAVYYCNADGTRYAGDDYWGQGTQVTVSS | high polyreactivity
QVQLVESGGGLVQAGGSIRLSCAASGIIFDTYAMGWYRQAPGKERELVAVISASGGSTYYADSVKGRFTISRDNAKNTVYLQMNSLKPEDTAVYYCAARHSLYGYWGQGTQVTVSS | high polyreactivity
QVQLVESGGGLVQAGGSIRLSCAASGLTLIVNSMGWYRQAPGKERDLVASITIGGTTYADSVKGRFTISRDNAKNTVYLQMNSLKTEVTAVYYCAADYSSFSIDTGYDYWGQGTQVTVSS | low polyreactivity
QVQLVESGGGLVQAGGSIRLSCAASGRIFIYNVMGWYRQAPGKERELVATISTGGTTNYADSVKGRFTISRDNAKNTVYLQMNSLKPEETAVYYCIRGSGYWYLPAVKYDHWGQGTQVTVSS | low polyreactivity
QVQLVESGGGLVQAGGSIRLSCAASGRTFACNSMGCYRQAPGKERELVARIRSSGSTYYADSVKGRFTISRDNAKNTVYLQMNSLKPEDTAVYYCAADIRFWYGYYYWGQGTQVTVSS | high polyreactivity
QVQLVESGGGLVQAGGSIRLSCAASGRTFSKYTMGWYRQAPGKERELVAVISRSGTRTYYADSVKGRFTISRDNAKNTVYLQMNSLKAEDTAVYYCAAKDERRSFGMGYWGQGTHVTVSS | high polyreactivity
QVQLVESGGGLVQAGGSIRLSCAASGSIFGGYDMGWYRQAPGKERELVSAIDADAGSTYYADSVKGRFTISRDNAKNTVYLQMYSLKPEDTSDDYCGAESYPYFITLYVFTLYGYWGQGTQVTVAS | low polyreactivity
QVQLVESGGGLVQAGGSIRLSCAASGSIFVSNAMGWYRQAPGKERELVAAISGGGSTYYADSVKGRFTISRDNAKNTVYLQMNSLKPEDTAVYYCAKKGGHRTYGYDSWGQGTQVTVSS | low polyreactivity

Reference: the nanobody polyreactivity screen of Harvey et al. (2022)
